Test results reported in patent publication US20090311265A1.

Columns and labels:
[1] = target: recombinant HA, subtype H7 (A/Netherlands/219/03 (H7N7)) (influenza A virus A/Netherlands/219/03 (H7N7)); assay: ELISA, coated HA, IgG 5 µg/ml
[2] = target: recombinant HA, subtype H9 (A/Hong Kong/1073/99 (H9N2)) (influenza A virus A/Hong Kong/1073/99 (H9N2)); assay: ELISA, coated HA, IgG 5 µg/ml

B1: CR6329 (antibody, V domains shown)
VH: EVQLVQSGAEVKKPGSSVKVSCKASGGIFRSNSISWVRQAPGQGLEWMGGIFALFGTTDYAQKFQGRVTITADESSTTVYLELSSLTSEDTAVYYCARGSGYTTRNYFDYWGQGTLVTVSS
VL: EIVLTQSPGTLSLSPGERATLSCRASQSVSSNYLGWYQQKPGQAPRLLIYGASSRASGIPDRFSGGGSGTDFTLTISRLEPEDFAVYYCQQYGSSPLTFGGGTKVEIKR
OD 492 nm [1]: 0.17 OD 492 nm | OD 492 nm [2]: 2.16 OD 492 nm
